Laboratory results: patent publication US20230031262A1, “TREATMENT OF MILD TRAUMATIC BRAIN INJURY” (OXEIA BIOPHARMACEUTICALS, INC., priority 2019, published 2023)
Where no end group is shown, it is not given here. The star is where a group is joined. Octanoyl = CCCCCCCC(=O)*

Assays:
[1] = in vivo; cited from earlier work
[2] = in vivo; cited from earlier work; remark: listed apart in the source
[3] = stability of reconstituted OXE-103 drug product on storage; assay type: physicochemical; details: reconstituted OXE-103 for SC administration 14 mg in 5 mL multi-use vials
Method: OXE-103 drug product, placebo, and diluent are stored refrigerated between 2° C. to 8° C. (35.6° F. to 46.4° F.). Reconstituted OXE-103 for SC administration 14 mg (in 5 mL multi-use vials) is stable for up to 14 days at 10° C. or for up to 3 days when stored at 25° C./1000 Lux. The reconstituted drug product (and placebo) is stored refrigerated at 2° C. to 8° C. (35.6° F. to 46.4° F.).

[4] = in vivo; cited from earlier work; remark: listed apart in the source

Substance: ghrelin (GSS(Octanoyl)FLSPEHQRVQQRKESKKPPAKLQPR; UniProt Q9UBU3 24-51, looked up) [OXE-103]
- serum half-life [1]: about 30 minutes
- adverse effects of long term use [2]: increased appetite, weight gain, and adiposity
- stable for up to (reconstituted, storage time) ([3]; at 10° C.): up to 14 days
- stable for up to (reconstituted, storage time) ([3]; stored at 25° C./1000 Lux): up to 3 days
- safety [4]: quite safe
